Measured values published in the nanobody polyreactivity screen of Harvey et al. (2022).

Assay: yeast display, Sf9 membrane polyspecificity reagent, FACS + sequencing; frameworks hold sequencing errors
Procedure, shortened: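 Sorting gates, low and high (top ~1%), were placed on anti-HA fluorescence to track expression and on streptavidin fluorescence to track reagent binding. A clone's polyreactivity label is taken from the gate it came out of. The reagent was 10% biotinylated, detergent-solubilized Sf9 membrane, applied for 1 hour at 4 °C to galactose-induced yeast display cells.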

Sequence	polyreactivity (PSR sort gate)
QVQLVESGGGLVQAGGSLRLSCAASGRIFDYYAMGWNRQAPGKERELVAAITWSGGNTYYADSVKGRFTISRDNAKNTVYLQMNSLKPEDTAVYYCAAEYYYLNDIYSEYDYWGQGTQVTVSS	high polyreactivity
QVQLVESGGGLVQAGGSLRLSCAASGRIYAMGWYRQAPGKERELVAAISRGGSTYYADSVKGRFTISRDNAKNTVYLQMNSLKPEDTAVYYCARRYASTGYDYWGQCTQVTVSS	high polyreactivity
QVQLVDSGGGLVQAGGSLRLSCAASGSIFYRNAMGWSRQAPGKERELVAAITRGGSTYYADSVKGRFTISRDNAKNTVYLQMNSLKPEDTAVYYCNAYGGFAYSYDYWGQGTQVTVSS	high polyreactivity
QVQLVESGGGLVQAGGSLRLSCAASGSIGYMGWYRQAPGKERELVAFITSSGGGTYYADSVKGRFTISRDNAKNTVYLQMNSLKPEDTAVYYCATKSSAGYDYWGQGTQVTVSS	low polyreactivity
QVQLVESGGGLVQARGSLRLSCAASVIIFRLYGRGWYRQAPGKEREFVATITWRGGRTNYADSVKGRFTISRDNAKNTVYLQMNSLKPEDTAVYYCAKVVRYARSNEYDSWGQGTQVTVSS	low polyreactivity
QVQLVESGGGLVQAGGSLRLSCAASGSTFRGNTMGWYRQAPGKERELVAVISWSDGHTYYADSVKGRFSSSRDYAKNTGYLQMNSLKPEDPAVYYCAAPDPFYDLDSWGQGTQVTVSS	high polyreactivity
QVQLVESGGVLVQAGGSLRLSCAASGSTFFLYMGWYRQAPGKERELVAAITVSGRSTYYADSVKGRFTISRDNAKNTVYLQMNSLKPEDTAVYYCNADWVLRYDYWGQGTQVTVSS	low polyreactivity
QVQLVESGGGLVQAGGSLRLSCAASGSIFSSYTMGWYRPAPGKERELLAAISSTGSTYYADSVKGRFTISRDNAKNTVYLQMNSLKPEDTAVYYCAARGWYWQQYKGHTRYDYWGQGTQVTVSS	high polyreactivity
QVQLVESGGGLVQAGGSLRLSCAASGRIFNFYAMGWYRQAPGKERELVASITSDGSTKYADSVKGRFTISRDNAKNTVYLKMNSLKPEDTAVFYCATDTWGSYYDDDDYWGQGTQVTVSS	high polyreactivity
QVQLVESGGGLVQAGGILRLSCAASGSTFGRYAMGWYRQAPGKVRELVAAISRRGGSTYYADSVKGRFTISRDNAKKTVYLQMYSLKRQDTAVYYCGADDVRTTGCHFDYWGQGTEVTVSS	high polyreactivity
QVQLVESGGGLVQAGGSLRLSCAASGSTFSKYAMGWYRQAPGKERELVAAINYGGTSTYYADSVKGRFTISRDNAKNTVYLQMNSLKPEDTAVYYCAVIYRRLYTGGQNPYDYWGQGTQVTVSS	high polyreactivity
QVQLVESGGGLVQAGGSLRLSCAAYGRIFSYYAMGWYRQAPGKERELVATINSGGSTNYADSVKGRFTISRDNAKNTVYLQMNSLKPEDTAVYYCDASPVWWYDYWGQGTQVTVSS	low polyreactivity
QVQLQESGGGLEQAGGSLRLSCAATGTIFTDRFMGWYRQAPGKERELVAGISPGTSSNSADSVKGRFTISRDNAKNTVYLQMNSLKPEDTAVYYCAADWSTGNTLPYWGQGTQVTVSS	high polyreactivity
QVQLVESGGGLVQAGGSLRLSCAASGTNVMGWYRQAPGKERELVAAISGSGGSTYYADSVKGRFTISRDNAKNSVYFQMNSLKPEDSAVYYCAADSIQYTARPYDYWGQGTQVTVSS	low polyreactivity
QGQLVESGGGLVQAGGSLRLSCAASGLTFKYYTMGWYRQAPGKEMELVAAINWSGASTYADSVKGRFTISRDNAKNTVYLQMNSLKPEDTAVYYCAADSPSWAPVREYDFWGQGTQVTVSS	low polyreactivity
QVQLVESGGGLVQAGGSLRLSCAASGSIFVGNAMGWSRQAPGKERELVATISRGARRKYADSVKGRFTISRDNAKNTVYLQMNSLIPEDTAVYYCNKVTSYYVFYTPYYSWGQGTQVTVSS	low polyreactivity

Sequence	polyreactivity (PSR sort gate)
QVQLVESGGGLVQAGGSLRLSCAASGRTFGWYTMGWYRQAPGKEREFVAAISSSDTSTYYADSVKGRFTISRDNAKNTVYLQMNSLKPEDTAVYYCAADPPSWRWFVGYSYDYWGQGTQVTVSS	low polyreactivity
QVQLVESGGGLVQAGGSLRLSCAASGRIFDRNAMGWYRQAPGKERELVAAISWSGGRTYYADSVKGRFTISRDNAKNTVYLQMNSLKPEDTAVYYCAADHYPWWAWEFDYWGQGTQVTVSS	low polyreactivity
QVQLEESGGGLVQAGGSLRLSCAASGSIFVGNVMGWYRQAPGKERELVAAITYSGGSTYYADSVKGRFTISRDNAKNTVYLQMNSLKPEDTAVYYCAKPSRVSIGYDYWGQGTQVTVSS	low polyreactivity
QVQLVESGAGLVQAGGSLRLSCAASGLTSTNNAMGWYRQAPGKERELVAAITSGSTTNYADSVKGRFTISRDNAKNTVYLQMNSLKPEDTAVYYCAAQYGVWWRRYYYPEYDYWGQGTQVTVSS	low polyreactivity
QVQLVESGGGLVQAGGSLRLSCAASGRIFNQYAMGWYIQAPGKERELVAAISRRGGSTYYADSVKGRFTISRDNAKNTVYLQMNSLKPEDTAVYYCAAVGGYASYFHLYYYWGQGTQVTVSS	high polyreactivity
QVQLVESRGGLVQAGGSLRLSCAASVGTFGLNAMGWYSQAPGKERELVADIDGRGGSTYYADSVKGRFTISRDNAKNTFDLQMNSLKPEDTAVYYSAARAPFLSVPSELDYWGQGTQVTVSS	low polyreactivity
QVQLVESGGGLVQAGGSLRLSCAASGRIFYPNAMGWYRQAPGKERELVAGISSGGSTYYADSVKGRFTISRDNAKNTVYLQMNSLKPEDTAVYYCAARVYAHTSRRFLKYDYWGQGTQVTVSS	high polyreactivity
QVQLVESGGGLVQAGGSLSLICAAYGSTLGVYAMGWYIQAPGKERELVAAISSGGSTTYADSVKGRFTISRDNAKNTVYLQMNSLKPEDTAVYYCAADRYEGYVTWYWWGAYNYDYWGQGTQVTVSS	high polyreactivity
QVQLVESGGGLVQAGGSLRLSCAASVFIFAIYAMGWYRQAPGKERELVADINSDGSTYYADSVKGRFTISRDNAKNTVYLQMNSLKPEDTAVYYCNAETAGHDMDYWGQGTQVTVSS	low polyreactivity
QVQLVESGGGLVQAGGSLRLSCAASGRTFGYNAMGWYRQAPGKERELVASISWSGGTTYYADSVKGRFTISRDNAKNTVYLQMNSLKPEDTAVYYCAADRQSYVTRLYRSYWGNYWGQGTQVTVSS	high polyreactivity
QVQLVESGGGLVQAGGSLRLSCAASGSIFALYAMGWYRQAPGKERELVAAISNTGGSTYYADSVKGRFTISRDNAKNTVYLQMNSLKPEDTAVYYCAARKARSSPRYYYWGQGTQVTVSS	high polyreactivity
QVQLVESGGGLVQAGGSLRLSCAASGSIFKVYAMGWYRQAPGTERELVAGITLNGGSTYYADSVKGRFTISRDNAKNNVYLQMNSLKPEDTAVYYCNAVYSYYYRWYYDFDYWGQGTQVTVSS	high polyreactivity
QVQLVESGGGVVEAGGSLRLSCAASGSTLGFYARGWYRQAPGKEWEFVAAITRSGTSTYYADSVKGRFTISRDNAKNTVYLQMTSLKPEDTAVYYCPAESYYGVPYDSWGQGTQVTLSS	high polyreactivity
QVQLVESGGGLVQAGGSLRLSCAASGLTSNGYDMGWYRQAPGKERELVAGITSGGSPYYADSVKGRFTISRDNAKNTVYLQMNSLKPEDTAVYYCNADVTYYIVWEYDYWGQGTQVTVSS	low polyreactivity
QVQLVESGGGLVQAGGSLRLSCAASGSIFRLNTMGWYRQAPGKERELVAAITRSGSTNYADSVKGRFTISRDNAMNTVYLQMNSLKPEDTAVYYCAARYPREAAYGFEYWGQGTQVTVSS	high polyreactivity
QVQLVESGGGLVQAGGSLRLSCAASGFIFGHNTMGWYRPAPGKERELVAAIDGGGGTSYADSVKGRFTISRDNAKNTVYLQMNSLKPEDTAVYYCAAYVAKGPLEYYYHYPYDYWGQGTQVTVSS	low polyreactivity
